Experimental data from paper PMC8605023.

Legend:
[1] = molecular target: MAP1LC3C ATG8 domain (human) (UniProt Q9BXW4)
USP7 (human) = USP7 (human) (UniProt Q93009)
[2] = molecular target: G3BP1 NTF2 domain (human) (UniProt Q13283)
[3] = molecular target: G3BP2 NTF2 domain (human) (UniProt Q9UN86)
Chain of G3BP2 NTF2 domain (human) (Q9UN86 11-133): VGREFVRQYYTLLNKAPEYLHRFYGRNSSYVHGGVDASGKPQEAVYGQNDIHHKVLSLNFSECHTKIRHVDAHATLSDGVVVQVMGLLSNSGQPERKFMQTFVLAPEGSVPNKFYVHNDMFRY

Chain of USP7 (human) (Q93009 whole entry, the tested form may be a part): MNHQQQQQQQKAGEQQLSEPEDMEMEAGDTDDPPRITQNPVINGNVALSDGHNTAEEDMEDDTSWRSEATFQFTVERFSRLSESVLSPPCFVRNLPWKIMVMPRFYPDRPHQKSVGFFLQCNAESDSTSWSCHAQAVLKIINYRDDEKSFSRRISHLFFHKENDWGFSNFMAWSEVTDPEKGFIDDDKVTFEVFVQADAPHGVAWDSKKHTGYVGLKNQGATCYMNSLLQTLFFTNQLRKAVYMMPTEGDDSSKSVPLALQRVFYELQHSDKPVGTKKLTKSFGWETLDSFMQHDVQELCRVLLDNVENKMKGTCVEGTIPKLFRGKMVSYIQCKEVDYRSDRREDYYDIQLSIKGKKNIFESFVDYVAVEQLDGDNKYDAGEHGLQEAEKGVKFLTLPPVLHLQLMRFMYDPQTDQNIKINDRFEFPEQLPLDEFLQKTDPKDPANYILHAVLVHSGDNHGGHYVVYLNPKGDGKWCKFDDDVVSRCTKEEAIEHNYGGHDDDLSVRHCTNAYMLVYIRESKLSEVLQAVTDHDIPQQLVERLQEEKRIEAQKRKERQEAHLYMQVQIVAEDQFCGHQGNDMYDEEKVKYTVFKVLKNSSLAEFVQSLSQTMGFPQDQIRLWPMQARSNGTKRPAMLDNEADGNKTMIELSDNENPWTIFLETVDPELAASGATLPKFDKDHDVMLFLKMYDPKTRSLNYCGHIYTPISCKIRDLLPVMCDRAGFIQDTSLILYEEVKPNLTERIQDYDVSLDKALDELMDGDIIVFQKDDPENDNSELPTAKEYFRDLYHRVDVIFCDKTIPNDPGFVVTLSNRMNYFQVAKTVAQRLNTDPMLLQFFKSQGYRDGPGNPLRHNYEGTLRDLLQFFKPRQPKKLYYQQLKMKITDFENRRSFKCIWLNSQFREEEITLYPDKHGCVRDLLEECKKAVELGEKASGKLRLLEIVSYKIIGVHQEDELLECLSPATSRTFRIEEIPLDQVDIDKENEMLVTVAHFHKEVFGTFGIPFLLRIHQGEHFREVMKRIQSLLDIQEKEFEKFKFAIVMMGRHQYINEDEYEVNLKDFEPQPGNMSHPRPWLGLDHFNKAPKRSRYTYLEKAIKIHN
Chain of MAP1LC3C ATG8 domain (human) (Q9BXW4 1-126): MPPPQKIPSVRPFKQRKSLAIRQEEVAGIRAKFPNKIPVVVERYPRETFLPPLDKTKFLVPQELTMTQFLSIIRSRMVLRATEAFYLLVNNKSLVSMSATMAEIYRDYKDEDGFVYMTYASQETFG
Chain of G3BP1 NTF2 domain (human) (Q13283 11-133): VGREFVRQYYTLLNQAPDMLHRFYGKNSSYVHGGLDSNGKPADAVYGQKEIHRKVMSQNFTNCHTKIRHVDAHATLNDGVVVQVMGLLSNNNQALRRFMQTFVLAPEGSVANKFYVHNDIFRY

Substance	IC50 [1] [µM]	Ki [1] [µM]	IC50 (USP7 (human)) [µM]	Ki (USP7 (human)) [µM]	IC50 [2] [µM]	IC50 [3] [µM]
NSP3 peptide 2019-2034 (Sars-CoV2)	1530	210	270	37		
N peptide 405-419 (Sars-CoV2)			1050	150		
N peptide 12-26 (Sars-CoV2)					17	10
